Where no end group is shown, it is not given here.
What was measured:
FN fibrils [1] = target: T1, FN fibrils (Mus musculus, UniProt P11276); test: Phage clones incubated with growing fibroblast cultures actively assembling matrix; overlap of phage and FN signal; assay type: cell-based; conditions: for Manders' coefficient with a higher concentration of phage: high concentration phage stocks
T1 construct: endogenous in cells; host or cells: NIH 3T3 fibroblasts
Method: (§1) FIGS. 4A-4C are representative photomicrographs of fixed and stained assembled matrices after clone 2 (1×10^12 pfu/mL) was incubated with NIH 3T3 fibroblasts for 2 days, and specifically stained for FN (4A) and phage (4B), as well as a merge of the two images (4C). Insets in 4A and 4B are maximum intensity projections of a single fibril obtained through confocal microscopy from the S2 condition for FN (4A) and phage (4B).
Phage S2 and S2-based phages, effectively label fibrils as they are being assembled.
(§2) To further analyze the interaction between the isolated phages and FN fibrils, each phage clone was incubated with growing fibroblast cultures that were actively assembling matrix. Monolayers were then stained for both phage and FN and resulting images were analyzed to assess the amount of overlap between phage and FN signal. […] To quantify the extent of phage overlap with FN fibrils, Manders' coefficients were generated, which define the percent overlap between the two image channels. Manders' coefficients reveled the percent overlap of the phage fluorescence with FN was highest for clone S2 (Manders' coefficient 0.91). A summary of all Manders' coefficients and phage characterizations can be found in Table 2.
Clone 2 staining was extremely robust and images of matrix assembled in the presence of a higher concentration of phage appeared to have more coverage of fibrils by phage. […] For clone 12, it appears that adding more phage led to higher background staining. […] This is further supported by confocal images depicting a single fibril from a clone 2 incubation in which there is significant overlap between phage and FN at the level of a single fibril.

FN fibrils [2] = target: T1, FN fibrils; test: Fusion proteins tested in fibroblast culture for FN fibril binding; assay type: cell-based
Method: (§3) Following purification using glutathione affinity chromatography, the fusion proteins was tested in fibroblast culture to determine if they maintained the properties seen in the phage.

FN matrix accumulation = test: Fusion proteins tested in fibroblast culture for impact on matrix accumulation; assay type: cell-based
Method: as §3

FN fibrils [3] = target: T1, FN fibrils; test: Phage binding to FN fibrils of fixed confluent NIH 3T3 fibroblasts (co-staining for M13 phage and FN); assay type: cell-based
Method: Confluent NIH 3T3 fibroblasts, which have been well characterized to assemble a dense, fibrillar FN matrix, were used to test phage binding to FN fibrils. Cells were fixed, blocked, and incubated with individual phage clones, then co-stained with antibodies to M13 phage and FN and imaged. Most phage-monolayers looked like the negative control and contained infrequent phage signals that were not aligned with the FN matrix. Several of the clones generated a pattern of phage staining that had some co-localization with FN fibrils but also appeared to contain some phage aggregates.

FN matrix assembly = test: FN matrix accumulation in the presence of phage clones (immunofluorescence, immunoblots of DOC-insoluble FN); assay type: cell-based
Source text: Beyond the ability of the isolated phage clones to bind FN matrix, their potential capacity to modulate matrix accumulation was considered. Given that the clones were panned against a FN fragment containing the assembly domain, it was questioned if they might modulate FN matrix assembly.

FN matrix = test: Immunoblot comparing effects of S3 and S20 against a control on formation of FN matrix (FIG. 2); assay type: cell-based
Method: FIG. 2 is an immunoblot comparing the effects of S3 and S20 against a control on the formation of FN matrix.
Referring to FIG. 2, when incubated with cells during matrix assembly, S20 can enhance matrix formation by 60%.

[4] = target: T2, FN matrix (fibronectin fibrils) assembled by NIH 3T3 fibroblasts (UniProt P11276 33-2477, limits assumed); test: phage incubated with fibroblasts assembling matrix; overlap of phage fluorescence with FN stain
T2 construct: whole, on cells; Fibrillar, cell-assembled fibronectin matrix; also called FN fibrils
T2 sequence (P11276 33-2477 limits assumed): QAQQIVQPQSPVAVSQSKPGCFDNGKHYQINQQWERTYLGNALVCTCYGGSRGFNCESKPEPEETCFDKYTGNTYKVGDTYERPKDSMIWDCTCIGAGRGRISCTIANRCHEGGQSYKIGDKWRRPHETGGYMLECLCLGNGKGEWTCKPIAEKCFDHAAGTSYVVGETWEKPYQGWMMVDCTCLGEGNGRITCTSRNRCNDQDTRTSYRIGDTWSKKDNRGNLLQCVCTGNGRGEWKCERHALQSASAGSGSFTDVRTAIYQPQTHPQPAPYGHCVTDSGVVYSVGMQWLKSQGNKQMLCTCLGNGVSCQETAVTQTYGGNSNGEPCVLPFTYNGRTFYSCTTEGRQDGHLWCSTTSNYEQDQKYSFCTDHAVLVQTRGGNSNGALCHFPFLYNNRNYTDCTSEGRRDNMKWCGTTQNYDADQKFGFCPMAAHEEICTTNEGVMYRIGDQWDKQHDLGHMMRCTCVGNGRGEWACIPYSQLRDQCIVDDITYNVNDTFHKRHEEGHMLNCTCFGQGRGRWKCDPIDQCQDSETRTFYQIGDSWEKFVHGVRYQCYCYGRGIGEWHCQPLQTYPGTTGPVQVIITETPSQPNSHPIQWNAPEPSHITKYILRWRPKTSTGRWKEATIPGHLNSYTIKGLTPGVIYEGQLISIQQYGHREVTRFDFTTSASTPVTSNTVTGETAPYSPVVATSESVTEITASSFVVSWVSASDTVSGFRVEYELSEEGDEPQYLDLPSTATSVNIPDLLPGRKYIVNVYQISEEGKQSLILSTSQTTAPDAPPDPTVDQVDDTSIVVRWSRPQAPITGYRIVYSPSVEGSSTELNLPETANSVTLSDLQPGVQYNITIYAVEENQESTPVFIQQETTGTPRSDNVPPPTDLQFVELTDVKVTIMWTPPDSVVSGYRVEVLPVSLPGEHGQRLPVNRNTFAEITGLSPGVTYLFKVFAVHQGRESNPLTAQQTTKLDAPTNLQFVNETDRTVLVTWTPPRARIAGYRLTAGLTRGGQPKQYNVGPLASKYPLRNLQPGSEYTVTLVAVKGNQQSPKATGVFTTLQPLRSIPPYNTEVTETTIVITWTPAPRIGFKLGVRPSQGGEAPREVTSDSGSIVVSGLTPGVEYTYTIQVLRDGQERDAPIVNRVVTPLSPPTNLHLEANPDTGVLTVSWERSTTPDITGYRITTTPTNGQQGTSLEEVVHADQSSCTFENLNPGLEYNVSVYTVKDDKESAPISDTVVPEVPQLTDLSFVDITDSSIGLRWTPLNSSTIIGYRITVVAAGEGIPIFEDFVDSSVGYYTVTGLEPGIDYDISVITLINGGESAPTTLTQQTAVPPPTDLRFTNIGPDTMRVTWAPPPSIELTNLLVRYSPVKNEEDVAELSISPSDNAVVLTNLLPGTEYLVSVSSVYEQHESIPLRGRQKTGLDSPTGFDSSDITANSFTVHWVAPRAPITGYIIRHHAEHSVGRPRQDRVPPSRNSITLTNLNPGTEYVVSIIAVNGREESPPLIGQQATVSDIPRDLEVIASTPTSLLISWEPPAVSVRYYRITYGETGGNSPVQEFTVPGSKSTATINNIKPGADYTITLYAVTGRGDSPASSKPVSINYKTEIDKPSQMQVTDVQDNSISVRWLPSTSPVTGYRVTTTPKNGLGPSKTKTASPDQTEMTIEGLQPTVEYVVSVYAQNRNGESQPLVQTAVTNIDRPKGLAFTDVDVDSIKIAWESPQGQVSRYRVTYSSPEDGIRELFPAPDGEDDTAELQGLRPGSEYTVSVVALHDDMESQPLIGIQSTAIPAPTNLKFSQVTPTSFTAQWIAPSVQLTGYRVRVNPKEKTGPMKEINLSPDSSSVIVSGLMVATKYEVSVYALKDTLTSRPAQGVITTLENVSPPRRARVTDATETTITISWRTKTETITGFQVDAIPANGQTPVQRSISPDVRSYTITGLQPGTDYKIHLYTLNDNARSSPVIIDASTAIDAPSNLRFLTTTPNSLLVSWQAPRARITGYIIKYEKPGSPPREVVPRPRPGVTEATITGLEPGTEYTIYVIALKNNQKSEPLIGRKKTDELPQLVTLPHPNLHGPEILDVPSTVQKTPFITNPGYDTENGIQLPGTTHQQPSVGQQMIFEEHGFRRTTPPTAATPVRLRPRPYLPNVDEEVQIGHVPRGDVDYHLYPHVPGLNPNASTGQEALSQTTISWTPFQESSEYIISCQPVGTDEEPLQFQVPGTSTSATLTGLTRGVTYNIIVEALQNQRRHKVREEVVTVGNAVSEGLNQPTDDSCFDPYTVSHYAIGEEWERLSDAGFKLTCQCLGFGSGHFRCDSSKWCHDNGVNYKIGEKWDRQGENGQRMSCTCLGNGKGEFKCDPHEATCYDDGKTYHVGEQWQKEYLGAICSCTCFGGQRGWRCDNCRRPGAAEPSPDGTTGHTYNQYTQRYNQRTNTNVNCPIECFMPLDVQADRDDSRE
Method: as §1, with “(1×10¹²” for “(1×10^12”
as §2

[5] = substrate: FN matrix (fibronectin fibrils) assembled by NIH 3T3 fibroblasts (UniProt P11276); test: as above
Chain of FN matrix (fibronectin fibrils) assembled by NIH 3T3 fibroblasts (UniProt P11276) (P11276 33-2477 limits assumed): as above

[6] = substrate: FN matrix (fibronectin fibrils) assembled by NIH 3T3 fibroblasts (UniProt P11276); test: cell-based or functional assay

T1 sequence (P11276 33-2477): as the sequence (P11276 33-2477 limits assumed) above

## DYSYFDLWYSDT [Clone 12, 29]
FN fibrils [1]
  Manders' coefficient with a higher concentration of phage: the Manders' coefficient did not indicate higher coverage with inclusion of more phage

## GST-S3-GFP: fusion protein of GST, S3 peptide and GFP (NHVALWGTGTAS; not fully specified (N-terminus, C-terminus); also: fusion protein, GST dimerising)
FN fibrils [2]
  FN fibril binding: no detectable FN fibril binding
FN matrix accumulation
  impact on matrix accumulation: neither the S3 or S20 fusion proteins showed any matrix binding capacity or impact on matrix accumulation

## GST-S20-GFP: fusion protein of GST, S20 peptide and GFP (SDITPWWLLAQD; not fully specified (N-terminus, C-terminus); also: fusion protein, GST dimerising)
FN fibrils [2]
  FN fibril binding: no detectable FN fibril binding
FN matrix accumulation
  impact on matrix accumulation: neither the S3 or S20 fusion proteins showed any matrix binding capacity or impact on matrix accumulation

## GSYDWTKLPGLE [Clone 2, 16, 31, 48]
FN fibrils [3]
  pattern of phage staining, co-localization with FN matrix: created a fibrillar pattern that colocalized with the FN matrix better than the other phages
FN fibrils [1]
  Manders' coefficient with a higher concentration of phage: maintenance of the high Manders' coefficient
FN fibrils [1]; overlap of the phage fluorescence with FN, growing fibroblast cultures
  Manders' Coefficient: 0.91
FN fibrils [1]; phage incubated with fibroblasts as they assembled fibrils
  labeling of FN fibrils with incorporated phage: complete labeling of FN fibrils with incorporated phage
FN matrix assembly
  FN matrix accumulation by immunofluorescence: did not appear to impact FN matrix assembly

## NHVALWGTGTAS [Clone 3, 5, 27, 28]
FN matrix assembly
  FN matrix accumulation by immunofluorescence: without repressing FN matrix immunofluorescence signal

## NHVALWGTGTAS [Clone S3]
FN matrix
  effect on matrix formation: inhibits matrix formation

## S2-GFP: GST-S2-GFP after cleavage of the GST tag (GSYDWTKLPGLE; not fully specified (C-terminus)) [Clone S2-GFP]
FN fibrils [2]
  FN fibril binding: completely ablated FN fibril binding

## SDITPWWLLAQD [Clone 20, 21, 46]
FN matrix assembly
  FN matrix accumulation by immunofluorescence: increased FN matrix assembly by two-fold

## SDITPWWLLAQD [Clone S20]
FN matrix
  effect on matrix formation: enhances matrix formation
FN matrix; incubated with cells during matrix assembly
  enhancement of matrix formation: 60%

B1: M13 phage clone 39 displaying YSTTMWQYLPGA (peptide)
chain: YSTTMWQYLPGA
modifications: not fully specified (C-terminus)
notes: Whole phage particle stood in the assay; not shown: pIII protein of M13 phage; the peptide is its N-terminal fusion
[4]
  Manders' Coefficient: 0.677

## WHVALTGNNLER (peptide, not shown: large carriers, not fully specified) [M13 phage clone 37 displaying …]
[5]
  Manders' Coefficient: 0.698

## SDITPWWLLAQD (peptide, not shown: large carriers, not fully specified) [M13 phage clone 20 (20, 21, 46) displaying … (S20)]
[6]
  matrix formation (FIG. 2 immunoblot): 60%
[5]
  Manders' Coefficient: 0.552

## HNQTMWWTFPST (peptide, not shown: large carriers, not fully specified) [M13 phage clone 4 (4, 44) displaying …]
[5]
  Manders' Coefficient: 0.47

## IAYPTDMSLSYK (peptide, not shown: large carriers, not fully specified) [M13 phage clone 33 displaying …]
[5]
  Manders' Coefficient: 0.56

## DHVSLSGRSAAM (peptide, not shown: large carriers, not fully specified) [M13 phage clone 11 displaying …]
[5]
  Manders' Coefficient: 0.173

B2: M13 phage clone 12 (12, 29) displaying DYSYFDLWYSDT (peptide)
chain: DYSYFDLWYSDT
modifications: not fully specified (C-terminus)
notes: as for B1
[4]
  Manders' Coefficient: 0.746

## DHIPLRGQRVWQ (peptide, not shown: large carriers, not fully specified) [M13 phage clone 19 (19, 24, 32, 41, 45) displaying …]
[5]
  Manders' Coefficient: 0.397

## NHVALWGTGTAS (peptide, not shown: large carriers, not fully specified) [M13 phage clone 3 (3, 5, 27, 28) displaying … (S3)]
[5]
  Manders' Coefficient: 0.527

## SITEFNLLPGLW (peptide, not shown: large carriers, not fully specified) [M13 phage clone 6 (6, 35) displaying …]
[5]
  Manders' Coefficient: 0.606

## AHXRLSGSAPMF-{pIII (M13 phage)} (peptide, not shown: large carriers, not fully specified) [M13 phage clone 7 (7, 22, 38) displaying AHB…]
[5]
  Manders' Coefficient: 0.39

B3: M13 phage clone 2 (2, 16, 31, 48) displaying GSYDWTKLPGLE (S2) (peptide)
chain: GSYDWTKLPGLE
modifications: not fully specified (C-terminus)
notes: Whole phage particle stood in the assay; also called clone S2; clone s2; not shown: pIII protein of M13 phage; the peptide is its N-terminal fusion
[4]
  Manders' Coefficient: 0.913

## YVTNWGSLSGSY (peptide, not shown: large carriers, not fully specified) [M13 phage clone 23 displaying …]
[5]
  Manders' Coefficient: 0.675

## VSGYNVMPLNGD (peptide, not shown: large carriers, not fully specified) [M13 phage clone 1 displaying …]
[5]
  Manders' Coefficient: 0.253

## HWSGTHALSGRA (peptide, not shown: large carriers, not fully specified) [M13 phage clone 9 (9, 42) displaying …]
[5]
  Manders' Coefficient: 0.588
